From patent US20250002588A1
Each block holds one binder with its values, some of them ahead of it.

Molecular target: ALK-1/BMPR-2 receptor pair of the PathHunter U2Os dimerization cells (DiscoverX 93-0962C3) (UniProt P37023)
Test: cell-based or functional assay

ALK-1/BMPR-2 receptor pair of the PathHunter U2Os dimerization cells (DiscoverX 93-0962C3), sequence (P37023 22-503, chain 1 of 2): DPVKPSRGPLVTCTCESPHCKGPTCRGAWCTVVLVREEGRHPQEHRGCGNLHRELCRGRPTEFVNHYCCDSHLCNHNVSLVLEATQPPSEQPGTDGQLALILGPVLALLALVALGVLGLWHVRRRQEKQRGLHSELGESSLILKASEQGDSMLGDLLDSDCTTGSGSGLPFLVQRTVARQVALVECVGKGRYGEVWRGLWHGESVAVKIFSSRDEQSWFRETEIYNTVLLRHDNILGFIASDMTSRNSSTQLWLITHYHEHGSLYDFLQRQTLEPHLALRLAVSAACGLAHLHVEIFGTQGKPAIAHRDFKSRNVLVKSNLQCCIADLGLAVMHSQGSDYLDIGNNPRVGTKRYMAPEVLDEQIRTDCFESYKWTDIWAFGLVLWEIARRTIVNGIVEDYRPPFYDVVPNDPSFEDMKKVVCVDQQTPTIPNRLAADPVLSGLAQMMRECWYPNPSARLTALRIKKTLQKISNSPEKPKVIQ
ALK-1/BMPR-2 receptor pair of the PathHunter U2Os dimerization cells (DiscoverX 93-0962C3), sequence (Q13873 27-1038, chain 2 of 2, further chain): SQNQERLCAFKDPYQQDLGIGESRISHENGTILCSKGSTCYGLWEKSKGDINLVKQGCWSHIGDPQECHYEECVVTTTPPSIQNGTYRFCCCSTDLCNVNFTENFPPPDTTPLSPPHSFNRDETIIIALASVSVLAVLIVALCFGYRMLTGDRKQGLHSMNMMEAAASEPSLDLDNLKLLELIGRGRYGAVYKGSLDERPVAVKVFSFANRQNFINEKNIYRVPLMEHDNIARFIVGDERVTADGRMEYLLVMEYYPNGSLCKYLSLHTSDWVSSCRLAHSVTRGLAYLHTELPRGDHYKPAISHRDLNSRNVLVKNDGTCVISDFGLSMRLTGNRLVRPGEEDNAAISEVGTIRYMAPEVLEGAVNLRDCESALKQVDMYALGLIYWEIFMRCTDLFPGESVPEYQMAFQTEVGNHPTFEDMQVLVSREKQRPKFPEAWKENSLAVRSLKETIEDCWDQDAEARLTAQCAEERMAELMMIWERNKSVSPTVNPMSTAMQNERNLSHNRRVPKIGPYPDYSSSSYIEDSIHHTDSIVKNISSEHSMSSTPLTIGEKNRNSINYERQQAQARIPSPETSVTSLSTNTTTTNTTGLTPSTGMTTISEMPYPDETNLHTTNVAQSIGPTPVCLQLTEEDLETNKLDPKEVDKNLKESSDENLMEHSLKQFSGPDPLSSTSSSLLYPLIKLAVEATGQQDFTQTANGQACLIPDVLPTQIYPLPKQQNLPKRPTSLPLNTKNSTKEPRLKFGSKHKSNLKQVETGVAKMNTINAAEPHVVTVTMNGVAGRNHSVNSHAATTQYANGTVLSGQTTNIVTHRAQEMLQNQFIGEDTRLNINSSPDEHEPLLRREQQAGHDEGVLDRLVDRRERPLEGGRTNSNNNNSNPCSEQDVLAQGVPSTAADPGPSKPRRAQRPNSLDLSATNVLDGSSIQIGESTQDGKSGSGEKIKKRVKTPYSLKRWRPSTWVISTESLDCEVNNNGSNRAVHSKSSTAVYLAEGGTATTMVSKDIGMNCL

- % Emax BMP9: 97%
- EC50: 0.1 nM
- EMAX (RLU): 2.57e+06 RLU
B1: BMP10 (ligand, UniProt O95393 317-424, looked up)
chain: NAKGNYCKRTPLYIDFKEIGWDSWIIAPPGYEAYECRGVCNYPLAEHLTPTKHAIIQALVHLKNSQKASKACCVPTKLEPISILYLDKGVVTYKFKYEGMAVSECGCR

- % Emax BMP9: 100%
- EC50: 0.02 nM
- EMAX (RLU): 2.64e+06 RLU
B2: BMP9 (ligand, UniProt Q9UK05 320-429, looked up)
chain: SAGAGSHCQKTSLRVNFEDIGWDSWIIAPKEYEAYECKGGCFFPLADDVTPTKHAIVQTLVHLKFPTKVGKACCVPTKLSPISVLYKDDMGVPTLKYHYEGMSVAECGCR
